Data reported in publication PMC10958042.

B1: ATGL (PNPLA2, patatin-like phospholipase domain-containing protein 2), human, full length / CIDEC (FSP27), human (parent)
chain 1: MFPREKTWNISFAGCGFLGVYYVGVASCLREHAPFLVANATHIYGASAGALTATALVTGVCLGEAGAKFIEVSKEARKRFLGPLHPSFNLVKIIRSFLLKVLPADSHEHASGRLGISLTRVSDGENVIISHFNSKDELIQANVCSGFIPVYCGLIPPSLQGVRYVDGGISDNLPLYELKNTITVSPFSGESDICPQDSSTNIHELRVTNTSIQFNLRNLYRLSKALFPPEPLVLREMCKQGYRDGLRFLQRNGLLNRPNPLLALPPARPHGPEDKDQAVESAQAEDYSQLPGEDHILEHLPARLNEALLEACVEPTDLLTTLSNMLPVRLATAMMVPYTLPLESALSFTIRLLEWLPDVPEDIRWMKEQTGSICQYLVMRAKRKLGRHLPSRLPEQVELRRVQSLPSVPLSCAAYREALPGWMRNNLSLGDALAKWEECQRQLLLGLFCTNVAFPPEALRMRAPADPAPAPADPASPQHQLAGPAPLLSTPAPEARPVIGALGL
chain 2: MEYAMKSLSLLYPKSLSRHVSVRTSVVTQQLLSEPSPKAPRARPCRVSTADRSVRKGIMAYSLEDLLLKVRDTLMLADKPFFLVLEEDGTTVETEEYFQALAGDTVFMVLQKGQKWQPPSEQGTRHPLSLSHKPAKKIDVARVTFDLYKLNPQDFIGCLNVKATFYDTYSLSYDLHCCGAKRIMKEAFRWALFSMQATGHVLLGTSCYLQQLLDATEEGQPPKGKASSLIPTCLKILQ

Variants of: B1
Assay: LUMIER: Protein A-ATGL variant and firefly luciferase-partner co-expressed in HEK293T, lysates immunoprecipitated on IgG-coated plates, co-precipitated partner measured as luciferase luminescence
Conditions: with CIDEC (FSP27), transient co-transfection, IgG-coated LUMITRAC plates, 2 h at 4 °C, three PBS washes, Bright-Glo luciferase reagent, triplicates per assay, two …, parent: 0.17, not graded, scale: log2 fold change of co-immunoprecipitated luminescence relative to wild-type ATGL within each experiment

Variant	screen value
chain 1 K92L	-0.0227
chain 1 I70K	-0.434
chain 1 I70A	-0.118
chain 1 R351L	-0.353
chain 1 L62K	-0.0341
chain 1 L62A	-0.111
chain 1 T41A	0.105
chain 1 P86K	0.081
chain 1 L261E	-0.713
chain 1 E368A	-0.223
chain 1 G16K	0.534
chain 1 L178A	-0.204
chain 1 Y415A	-0.411
chain 1 G66L	0.197
chain 1 G66A	-0.0355
chain 1 K275A	-0.673
chain 1 R113L	-0.719
chain 1 R113K	-0.11
chain 1 G189E	-0.952
chain 1 L102K	-0.128
chain 1 Q140K	-0.161
chain 1 Q140A	0.722
chain 1 P258L	-0.89
chain 1 S87E	-0.478
chain 1 S87A	-0.0562
chain 1 A104E	-0.0649
chain 1 L159A	-0.648
chain 1 F348E	-0.409
chain 1 R163K	0.652

Same assay, conditions: with CIDEC (FSP27), transient co-transfection, IgG-coated LUMITRAC plates, 2 h at 4 °C, three PBS washes, Bright-Glo luciferase reagent, triplicates per assay, two …, parent: 0.24, not graded, scale: log2 fold change of co-immunoprecipitated luminescence relative to wild-type ATGL within each experiment

Variant	screen value
chain 1 K92L	0.785
chain 1 I70K	-0.623
chain 1 I70A	-0.628
chain 1 R351L	-0.407
chain 1 L62K	0.845
chain 1 L62A	-0.17
chain 1 T41A	-0.176
chain 1 P86K	-0.642
chain 1 L261E	-0.796
chain 1 E368A	-0.54
chain 1 G16K	0.954
chain 1 L178A	-0.645
chain 1 Y415A	-0.266
chain 1 G66L	-0.656
chain 1 G66A	-0.0837
chain 1 K275A	-0.64
chain 1 R113L	0.537
chain 1 R113K	0.829
chain 1 G189E	-0.896
chain 1 L102K	-0.319
chain 1 Q140K	0.485
chain 1 Q140A	0.0209
chain 1 P258L	-0.788
chain 1 S87E	-0.728
chain 1 S87A	-0.798
chain 1 A104E	-0.317
chain 1 L159A	0.00161
chain 1 F348E	-0.389
chain 1 R163K	0.0551
